Test results as given in the supplement of paper PMC11246515.
± gives the standard deviation of the averaged measurements.

Test: total protein half-life in vivo (active degradation + dilution); higher = more stable protein
[1] = E. coli NCM3722 delta-clpP delta-lon delta-hslV, growth: N-lim chemostat, doubling time 6 h
[2] = E. coli NCM3722 delta-clpP, growth: N-lim chemostat, doubling time 6 h
[3] = E. coli NCM3722 delta-lon, growth: N-lim chemostat, doubling time 6 h
[4] = E. coli NCM3722 delta-smpB, growth: N-lim chemostat, doubling time 6 h
[5] = wild type E. coli NCM3722, growth: C-lim chemostat, doubling time 3 h
[6] = wild type E. coli NCM3722, growth: C-lim chemostat, doubling time 6 h
[7] = wild type E. coli NCM3722, growth: C-lim chemostat, doubling time 12 h
[8] = wild type E. coli NCM3722, growth: N-lim chemostat, doubling time 6 h
[9] = wild type E. coli NCM3722, growth: P-lim chemostat, doubling time 6 h
[10] = wild type E. coli NCM3722, growth: P-lim chemostat, doubling time 12 h
[11] = E. coli NCM3722 delta-hslV, growth: N-lim chemostat, doubling time 6 h
[12] = wild type E. coli NCM3722, growth: N-lim chemostat, doubling time 12 h

MLKLFSAFRKNKIWDFNGGIHPPEMKTQSNGTPLRQVPLAQRFVIPLKQHIGAEGELCVSVGDKVLRGQPLTRGRGKMLPVHAPTSGTVTAIAPHSTAHPSALAELSVIIDADGEDCWIPRDGWADYRTRSREELIERIHQFGVAGLGGAGFPTGVKLQGGGDKIETLIINAAECEPYITADDRLMQDCAAQVVEGIRILAHILQPREILIGIEDNKPQAISMLRAVLADSNDISLRVIPTKYPSGGAKQLTYILTGKQVPHGGRSSDIGVLMQNVGTAYAVKRAVIDGEPITERVVTLTGEAIARPGNVWARLGTPVRHLLNDAGFCPSADQMVIMGGPLMGFTLPWLDVPVVKITNCLLAPSANELGEPQEEQSCIRCSACADACPADLLPQQLYWFSKGQQHDKATTHNIADCIECGACAWVCPSNIPLVQYFRQEKAEIAAIRQEEKRAAEAKARFEARQARLEREKAARLERHKSAAVQPAAKDKDAIAAALARVKEKQAQATQPIVIKAGERPDNSAIIAAREARKAQARAKQAELQQTNDAATVADPRKTAVEAAIARAKARKLEQQQANAEPEQQVDPRKAAVEAAIARAKARKLEQQQANAEPEEQVDPRKAAVEAAIARAKARKLEQQQANAEPEQQVDPRKAAVEAAIARAKARKREQQPANAEPEEQVDPRKAAVEAAIARAKARKLEQQQANAVPEEQVDPRKAAVAAAIARAQAKKAAQQKVVNED
total protein half-life in vivo [1]: 5.65 ± 0.73 h
total protein half-life in vivo [2]: 2.67 ± 0.51 h
total protein half-life in vivo [3]: > 8 h
total protein half-life in vivo [4]: 1.01 ± 0.033 h
total protein half-life in vivo [5]: 1.3 ± 0.13 h
total protein half-life in vivo [6]: 1.31 ± 0.069 h
total protein half-life in vivo [7]: 1.76 h
total protein half-life in vivo [8]: 1.16 h
total protein half-life in vivo [9]: 1.8 ± 0.14 h
total protein half-life in vivo [10]: 2.72 ± 0.58 h

MPLLHLLRQNPVIAAVKDNASLQLAIDSECQFISVLYGNICTISNIVKKIKNAGKYAFIHVDLLEGASNKEVVIQFLKLVTEADGIISTKASMLKAARAEGFFCIHRLFIVDSISFHNIDKQVAQSNPDCIEILPGCMPKVLGWVTEKIRQPLIAGGLVCDEEDARNAINAGVVALSTTNTGVWTLAKKLL
total protein half-life in vivo [4]: 3.74 h
total protein half-life in vivo [5]: 2.77 ± 0.24 h
total protein half-life in vivo [6]: 4.77 ± 0.7 h
total protein half-life in vivo [7]: 12.1 ± 1.7 h
total protein half-life in vivo [10]: 8.94 h

MHKFTKALAAIGLAAVMSQSAMAENLKLGFLVKQPEEPWFQTEWKFADKAGKDLGFEVIKIAVPDGEKTLNAIDSLAASGAKGFVICTPDPKLGSAIVAKARGYDMKVIAVDDQFVNAKGKPMDTVPLVMMAATKIGERQGQELYKEMQKRGWDVKESAVMAITANELDTARRRTTGSMDALKAAGFPEKQIYQVPTKSNDIPGAFDAANSMLVQHPEVKHWLIVGMNDSTVLGGVRATEGQGFKAADIIGIGINGVDAVSELSKAQATGFYGSLLPSPDVHGYKSSEMLYNWVAKDVEPPKFTEVTDVVLITRDNFKEELEKKGLGGK
total protein half-life in vivo [1]: 5.11 ± 0.82 h
total protein half-life in vivo [2]: 5.55 ± 0.61 h
total protein half-life in vivo [11]: 6.44 ± 0.68 h
total protein half-life in vivo [3]: 6.58 ± 0.93 h
total protein half-life in vivo [4]: 6.54 ± 1.9 h
total protein half-life in vivo [5]: 3.11 ± 0.2 h
total protein half-life in vivo [6]: 6.07 ± 0.47 h
total protein half-life in vivo [7]: 12.2 ± 2.1 h
total protein half-life in vivo [8]: 5.99 ± 0.45 h
total protein half-life in vivo [12]: 12.3 ± 3.3 h
total protein half-life in vivo [9]: 5.91 ± 0.24 h
total protein half-life in vivo [10]: 13.1 ± 0.49 h

MTQPLFLIGPRGCGKTTVGMALADSLNRRFVDTDQWLQSQLNMTVAEIVEREEWAGFRARETAALEAVTAPSTVIATGGGIILTEFNRHFMQNNGIVVYLCAPVSVLVNRLQAAPEEDLRPTLTGKPLSEEVQEVLEERDALYREVAHIIIDATNEPSQVISEIRSALAQTINC [P0A6E1]
total protein half-life in vivo [1]: 4.64 ± 0.55 h
total protein half-life in vivo [2]: 5.49 ± 2.4 h
total protein half-life in vivo [11]: 2.62 ± 0.031 h
total protein half-life in vivo [3]: 2.9 ± 0.18 h
total protein half-life in vivo [4]: 2.42 ± 0.11 h
total protein half-life in vivo [5]: 2.43 ± 0.067 h
total protein half-life in vivo [6]: 5.25 ± 0.8 h
total protein half-life in vivo [7]: 7.3 ± 0.53 h
total protein half-life in vivo [8]: 2.59 ± 0.29 h
total protein half-life in vivo [12]: 3.99 ± 0.094 h
total protein half-life in vivo [9]: 3.9 ± 0.047 h
total protein half-life in vivo [10]: 8.17 ± 0.78 h

MTGMTNVTKLASEPSGQEFLVFTLGDEEYGIDILKVQEIRGYDQVTRIANTPAFIKGVTNLRGVIVPIVDLRIKFSQVDVDYNDNTVVIVLNLGQRVVGIVVDGVSDVLSLTAEQIRPAPEFAVTLSTEYLTGLGALGDRMLILVNIEKLLNSEEMALLDSAASEVA [P0A964]
total protein half-life in vivo [1]: 5.19 ± 0.61 h
total protein half-life in vivo [2]: 4.56 ± 0.37 h
total protein half-life in vivo [11]: 5.25 h
total protein half-life in vivo [3]: 5.4 ± 0.52 h
total protein half-life in vivo [4]: > 8 h
total protein half-life in vivo [5]: 1.741 ± 0.013 h
total protein half-life in vivo [6]: 1.86 ± 0.086 h
total protein half-life in vivo [7]: 3.67 ± 1.6 h
total protein half-life in vivo [8]: 1.74 h
total protein half-life in vivo [12]: 2.23 h
total protein half-life in vivo [9]: 0.859 h
total protein half-life in vivo [10]: 9.75 h

MPKSVIIPAGSSAPLAPFVPGTLADGVVYVSGTLAFDQHNNVLFADDPKAQTRHVLETIRKVIETAGGTMADVTFNSIFITDWKNYAAINEIYAEFFPGDKPARFCIQCGLVKPDALVEIATIAHIAK [P0AFQ5]
total protein half-life in vivo [4]: 3.86 h

MNHAPHLYFAWQQLVEKSQLMLRLATEEQWDELIASEMAYVNAVQEIAHLTEEVDPSTTMQEQLRPMLRLILDNESKVKQLLQIRMDELAKLVGQSSVQKSVLSAYGDQGGFVLAPQDNLF [P0ABY2]
total protein half-life in vivo [5]: 0.191 h

MNKVAQYYRELVASLSERLRNGERDIDALVEQARERVIKTGELTRTEVDELTRAVRRDLEEFAMSYEESLKEESDSVFMRVIKESLWQELADITDKTQLEWREVFQDLNHHGVYHSGEVVGLGNLVCEKCHFHLPIYTPEVLTLCPKCGHDQFQRRPFEP [P0AAT9]
total protein half-life in vivo [1]: 5.96 ± 0.99 h
total protein half-life in vivo [2]: 4.62 ± 0.043 h
total protein half-life in vivo [11]: 4.74 ± 0.38 h
total protein half-life in vivo [3]: 5.364 ± 0.034 h
total protein half-life in vivo [4]: 4.05 ± 0.48 h
total protein half-life in vivo [5]: 2.81 ± 0.34 h
total protein half-life in vivo [6]: 4.632 ± 0.011 h
total protein half-life in vivo [7]: 8.29 ± 0.47 h
total protein half-life in vivo [8]: 3.87 ± 0.6 h
total protein half-life in vivo [12]: 10.7 ± 3.1 h
total protein half-life in vivo [9]: 5.95 ± 1.4 h
total protein half-life in vivo [10]: 10.9 ± 0.48 h

MVELKEPLATLWRGKDAFAEVKKLNGEVFRELETRRTLRFELSGKSYFLKWHKGTTLKEIIKNLLSLRMPVLGADREWHAIHRLSDVGVDTMKGIGFGEKGLNPLTRASFIITEDLTPTISLEDYCADWAVNPPDIRVKRMLIARVATMVRKMHTAGINHRDCYICHFLLHLPFTGREDELKISVIDLHRAQIRAKVPRRWRDKDLIGLYFSSMNIGLTQRDIWRFMKVYFGMPLRKILSLEQNLLNMASVKAERIKERTQRKGL
total protein half-life in vivo [1]: 6.12 ± 0.57 h
total protein half-life in vivo [2]: 6.03 ± 0.16 h
total protein half-life in vivo [11]: 6.41 ± 0.56 h
total protein half-life in vivo [3]: 5.58 ± 0.54 h
total protein half-life in vivo [4]: 5.92 ± 0.2 h
total protein half-life in vivo [5]: 3.02 ± 0.17 h
total protein half-life in vivo [6]: 6.68 ± 0.36 h
total protein half-life in vivo [7]: 11.5 ± 0.34 h
total protein half-life in vivo [8]: 5.76 ± 0.48 h
total protein half-life in vivo [12]: 11.4 ± 1.2 h
total protein half-life in vivo [9]: 5.94 ± 0.41 h
total protein half-life in vivo [10]: 12 ± 0.44 h
